What all share (details): remark: other sources report otherwise
Assay [1] concerns the target T1, pyrene-labeled ADP-actin filaments (chicken breast muscle actin) (chicken), P68139. The assay can be described thus: stopped-flow fluorescence kinetics.
Assay [2] deals with T1, pyrene-labeled ADP-actin filaments …. The assay can be described thus: other fluorescence titration.
The target is the same in assay [3]. The assay can be described thus: other fluorescence titration. The source holds these as a separate data set.
Assay [4] has as its target Mg-ATP-actin monomer (chicken breast muscle actin) (chicken), P68139. The assay can be described thus: inhibition of nucleotide exchange.

The values below come from publication PMC3206353.

B1: wild-type fission yeast cofilin, P78929 1-137 (natural protein)
chain: MSFSGVKVSPECLEAFQELKLGKSLRYVVFKMNDTKTEIVVEKKSTDKDFDTFLGDLPEKDCRYAIYDFEFNLGEGVRNKIIFISWSPDVAPIKSKMVYSSSKDTLRRAFTGIGTDIQATDFSEVAYETVLEKVTRK
modifications: here or on the partner: pyrene (pyrene iodoacetamide) on cysteine-374
In the case of B1, in assay [1], the kobs (3 µM cofilin, 1 µM filaments) worked out at 73.6 s⁻¹ and the association rate constant (kon) (in general, a measure of how fast the partners come together) was 1.25e+07 M⁻¹ s⁻¹. Also, the Kd (in general, the equilibrium constant for the complex coming apart) in assay [2] was 340 nM. In assay [3], this molecule gave a Ka of the cooperative model (Kd = 1/(ω*Ka)) of 0.15 µM⁻¹, a Kd of 330 nM and a binding cooperativity ω of 19.9. The molecule also gave a dissociation constant (Kd) in assay [4] of 80 nM.
